Reference: patent US20070243589A1 (Pfizer, published 2007)

Experiments:
human IL-22 [1] = molecular target: T1, human IL-22 (human, UniProt Q9GZX6 34-179); experiment: cell-based or functional assay
T1 sequence: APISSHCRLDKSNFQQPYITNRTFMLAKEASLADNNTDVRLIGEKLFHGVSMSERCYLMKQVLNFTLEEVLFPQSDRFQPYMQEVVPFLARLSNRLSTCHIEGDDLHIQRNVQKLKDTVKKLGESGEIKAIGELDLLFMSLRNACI

murine IL-22 [2] = molecular target: T2, murine IL-22 (murine, UniProt Q9JJY9 34-179); experiment: cell-based or functional assay
T2 sequence: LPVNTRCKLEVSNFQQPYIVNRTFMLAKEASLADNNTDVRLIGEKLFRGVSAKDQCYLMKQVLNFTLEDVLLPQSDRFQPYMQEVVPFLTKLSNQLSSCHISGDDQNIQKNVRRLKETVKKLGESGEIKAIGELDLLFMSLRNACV

rat IL-22 [3] = molecular target: T3, rat IL-22 (rat, UniProt G3V6X6 34-178); experiment: cell-based or functional assay
T3 sequence: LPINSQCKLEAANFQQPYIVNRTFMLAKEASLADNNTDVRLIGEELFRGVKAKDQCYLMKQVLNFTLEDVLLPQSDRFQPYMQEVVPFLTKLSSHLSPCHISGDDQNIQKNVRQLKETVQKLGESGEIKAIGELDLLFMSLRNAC

monkey IL-22 [4] = molecular target: monkey IL-22 (monkey); experiment: cell-based or functional assay
human IL-22 [5] = molecular target: T1, human IL-22; experiment: cell-based or functional assay; remark: listed apart in the source
murine IL-22 [6] = molecular target: T2, murine IL-22; experiment: cell-based or functional assay; remark: listed apart in the source
rat IL-22 [7] = molecular target: T3, rat IL-22; experiment: cell-based or functional assay; remark: listed apart in the source
monkey IL-22 [8] = molecular target: monkey IL-22 (monkey); experiment: cell-based or functional assay; remark: listed apart in the source
human IL-20 = molecular target: T4, human IL-20 (human, UniProt Q9NYY1 25-176); experiment: BIA (surface plasmon resonance)
T4 sequence (looked up): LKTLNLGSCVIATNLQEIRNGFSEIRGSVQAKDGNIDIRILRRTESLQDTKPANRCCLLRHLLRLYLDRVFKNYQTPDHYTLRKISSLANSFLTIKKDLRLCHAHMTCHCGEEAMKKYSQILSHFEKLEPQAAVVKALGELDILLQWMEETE

human IL-24 = molecular target: T5, human IL-24 (human, UniProt Q13007 52-206, limits assumed); experiment: BIA (surface plasmon resonance)
T5 sequence (looked up): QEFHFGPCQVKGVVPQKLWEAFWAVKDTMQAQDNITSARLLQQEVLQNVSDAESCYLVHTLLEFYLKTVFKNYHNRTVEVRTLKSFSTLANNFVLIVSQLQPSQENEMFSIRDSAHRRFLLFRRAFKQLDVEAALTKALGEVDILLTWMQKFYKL

human IL-28A = molecular target: T6, human IL-28A (human, UniProt Q8IZJ0 26-200); experiment: BIA (surface plasmon resonance)
T6 sequence (looked up): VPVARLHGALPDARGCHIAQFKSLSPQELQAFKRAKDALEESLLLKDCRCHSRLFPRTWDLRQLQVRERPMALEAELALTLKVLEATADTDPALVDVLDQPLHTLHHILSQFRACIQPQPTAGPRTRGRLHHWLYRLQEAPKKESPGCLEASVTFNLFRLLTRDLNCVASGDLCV

human IL-29 = human IL-29 (human, UniProt Q8IU54 20-200); experiment: BIA (surface plasmon resonance)
Chain of human IL-29 (Q8IU54 20-200 limits assumed): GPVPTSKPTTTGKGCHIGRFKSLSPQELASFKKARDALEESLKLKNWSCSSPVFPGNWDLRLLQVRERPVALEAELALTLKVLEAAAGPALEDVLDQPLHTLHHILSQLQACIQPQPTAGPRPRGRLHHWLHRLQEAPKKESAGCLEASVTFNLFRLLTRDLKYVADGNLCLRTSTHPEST

human IFN-ω = molecular target: T7, human IFN-ω (human, UniProt P05000 24-195); experiment: BIA (surface plasmon resonance)
T7 sequence (looked up): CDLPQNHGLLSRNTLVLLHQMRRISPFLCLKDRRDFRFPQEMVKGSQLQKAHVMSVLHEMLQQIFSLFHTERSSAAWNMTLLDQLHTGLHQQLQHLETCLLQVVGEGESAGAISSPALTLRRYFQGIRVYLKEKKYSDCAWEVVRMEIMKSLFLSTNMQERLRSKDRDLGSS

human IL-10 = human IL-10 (human, UniProt P22301 19-178); experiment: BIA (surface plasmon resonance)
Chain of human IL-10 (P22301 19-178 limits assumed): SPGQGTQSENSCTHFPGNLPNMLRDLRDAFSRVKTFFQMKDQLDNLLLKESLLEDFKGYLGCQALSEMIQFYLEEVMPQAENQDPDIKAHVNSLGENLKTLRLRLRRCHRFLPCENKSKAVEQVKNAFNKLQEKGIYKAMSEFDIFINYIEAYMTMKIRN

human IL-19 = molecular target: T8, human IL-19 (human, UniProt Q9UHD0 25-177); experiment: BIA (surface plasmon resonance)
T8 sequence (looked up): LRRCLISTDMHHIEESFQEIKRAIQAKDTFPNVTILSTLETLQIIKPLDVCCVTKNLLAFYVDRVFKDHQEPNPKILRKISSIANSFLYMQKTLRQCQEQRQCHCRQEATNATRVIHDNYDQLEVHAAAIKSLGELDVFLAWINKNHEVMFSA

human IL-22 [9] = molecular target: T1, human IL-22; experiment: SPR (Biacore), antibody amine-coupled to CM5 chip, human IL-22 as analyte, 1:1 model
Method: To prepare the biosensor surface for the human monoclonal antibodies, either human monoclonal antibody (356A11 or 368D04) or control antibody PD-1 (#17) were immobilized onto a research-grade carboxymethyl dextran chip (CM5) using standard amine coupling. The surface was activated with EDC/NHS. The capturing antibodies were injected at a concentration of 1 μg/ml in sodium acetate buffer (pH 5.5). Remaining activated groups were blocked with 1.0 M ethanolamine (pH 8.0). The first flow cell was used as a reference surface to correct for bulk refractive index, matrix effects, and non-specific binding. The second, third, and fourth flow cells were coated with the capturing molecule.
The kinetic data were analyzed using BIAevaluation software 3.0.2 applied to a 1:1 model. The apparent dissociation (Kd) and association (Kₐ) rate constants were calculated from the appropriate regions of the sensorgrams using a global analysis. The affinity constants of the interaction between antibody and analyte were calculated from the kinetic rate constants by the following formulae: KD=Kd/Kₐ, where KD is the dissociation constant and KA=Kₐ/Kd, where KA is the association constant.

B1: 356A11, human monoclonal anti-IL-22 antibody as used in Examples 10 and 11 (antibody, V domains shown)
VH: QVQLVQSGAEVKKPGASVKVSCKASGYTFTNYYMHWVRQAPGQGLEWVGWINPYTGSAFYAQKFRGRVTMTRDTSISTAYMELSRLRSDDTAVYYCAREPEKFDSDDSDVWGRGTLVTVSS
VL: QAVLTQPPSVSGAPGQRVTISCTGSSSNIGAGYGVHWYQQLPGTAPKLLIYGDSNRPSGVPDRFSGSKSGTSASLAITGLQAEDEADYYCQSYDNSLSGYVFGGGTQLTVLG
For B1, the “IC50 in GROa cell based assay” value (human IL-22 [1]) was 124 pM, the “IC50 in GROa cell based assay” value (murine IL-22 [2]) was 144 pM and the “IC50 in GROa cell based assay” value (rat IL-22 [3]) was 211 pM. The “IC50 in GROa cell based assay” value (monkey IL-22 [4]) was 89.6 pM, the “IC50 in BaF3 cell based assay” value (human IL-22 [5]) was 3.57 pM and the “IC50 in BaF3 cell based assay” value (murine IL-22 [6]) was 2.53 pM. For the same binder, the “IC50 in BaF3 cell based assay” value (rat IL-22 [7]) was 10.7 pM, the “IC50 in BaF3 cell based assay” value (monkey IL-22 [8]) was 2.58 pM and the binding result (human IL-20) was “no binding”. B1: no binding (human IL-24); no binding (human IL-28A); no binding (human IL-29). B1: no binding (human IFN-ω); no binding (human IL-10); no binding (human IL-19). The Ka (human IL-22 [9]) was 1.85e+10 M⁻¹, the Kd (human IL-22 [9]) was 54 pM and the koff (human IL-22 [9]) was 4.27e-06 s⁻¹. For the same binder, the kon (human IL-22 [9]) was 79100 M⁻¹ s⁻¹.
